Laboratory results: the supplement of paper PMC10567573

B1: ZNF649 (parent)
chain: LTEHKRIHTGKKPHVCSLCGKAFY
B2: CD207 (parent)
chain: MTVEKEAPDAHFTVDKQNISLWPR

Variants of: B1
Test: protein stability index of a GFP-peptide fusion (GPS, HEK-293T) (PSI 1-6); higher = more stable
Conditions: c terminus: a fixed tail appended
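Further: lentivirally expressed fusions sorted by FACS into six bins by GFP to DsRed ratio, PSI derived from sequencing read proportions per bin multiplied by bin number.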

Protein stability index of substitutions, site by site:
Y24: P 3.45; D 3.12; C 3.33; R 2.42; V 2.33; K 3.3; H 3.35; G 3.35; M 2.69; N 1.43; T 3.42; E 2.82; L 3.01; Q 3.04; A 2.88; I 1.81
F23: P 3.32; Q 2.3; Y 2.47; T 2.32; N 2.4; S 2.97; M 2.56; K 3.87; V 2.32; R 2.69; I 2.45; W 1.52

Variants of: B2
Test: as above
Conditions: c terminus: a fixed tail appended

Protein stability index of substitutions, site by site:
V3: L 3.44; E 3.72; Y 2.75; T 3.57; M 3.09; G 3.19; R 3.9; D 4.12; F 2.85; H 3.54; C 2.68; I 3.33; Q 3.42; W 2.86; S 3.55; N 3.93; K 3.79; P 4.07; A 3.47
P8: C 2.96; H 4.79; L 2.65; I 3.22; F 1.98; K 3.54; G 3.02; D 3.67; M 3.17; A 3.52; E 4.39
E4: S 3.68; G 3.37; V 3.38; A 3.17; H 3; F 2.28; W 1.99; T 2.77; N 2.86; D 3.67; P 3.18; M 3.2; L 2.79; C 3.11; R 3.02; I 2.56; Q 3.92; Y 2.43
M1: L 3.07; S 3.57; R 3.98; W 3.13; F 2.11; Q 3.8; E 3.36; Y 2.37; N 3.68; D 4.23; P 4.17; K 2.81; V 3.76; G 4.16; C 3.38; T 3.45; H 3.27; I 2.8; A 3.62
K5: L 1.86; P 3.48; H 3.27; D 3.48; V 1.53; S 3.04; M 2.04; N 3.13; G 3.79; W 2.04; I 1.95; E 4.03; Y 1.99; T 2.89; A 2.96; F 2.02; R 2.94; C 2.58
A7: T 3.31; N 4.01; R 2.54; P 3.54; I 2.67; D 3.79; C 3.31; L 2.96; Y 2.93; V 3.51; S 3.71; M 2.61; K 3.11; F 2.77; H 3.32; Q 3.97; W 2.68; E 4.23
E6: T 3.08; S 3.01; P 3.14; V 2.05; Y 2.38; Q 3.25; D 3.31; C 2.32; I 2.37; G 3.27; M 2.52; A 3.21; F 2.27; N 3.23; R 2.74; K 3.47; H 2.83; W 2.29; L 2.72
T2: Q 3.54; C 2.54; F 2.71; I 2.94; D 3.62; A 3.35; R 2.83; N 3.36; S 3.57; M 3.86; K 3.65; H 3.08; L 3.17; V 3.21; G 3.68; W 2.59; Y 2.18
